Primed or numbered codes have the meaning given here. Biotin′ = not defined here
T1: LRRC25(96-115) biotin peptide (human, not fully specified; N-terminal acetyl; C-terminal GGK-Biotin; native Cys changed to Ser)
T1 construct: also called Biotin LRRC25 (96-115) peptide
T1 peptide: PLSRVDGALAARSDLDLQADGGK

T2: LRRC25(111-130) biotin peptide (human, not fully specified; N-terminal acetyl; C-terminal GGK-Biotin; native Cys changed to Ser)
T2 peptide: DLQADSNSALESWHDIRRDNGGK

T3: LRRC25(150-165) biotin peptide (human)
T3 peptide: Ac-SAFLEVSSAPGLASATGG-{Biotin′}

T4: LRRC25(36-55) biotin peptide (human, not fully specified; N-terminal NH2; C-terminal GGK-Biotin; native Cys changed to Ser)
T4 peptide: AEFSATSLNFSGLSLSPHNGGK

T5: LRRC25(66-85) biotin peptide (human, not fully specified; N-terminal acetyl; C-terminal GGK-Biotin)
T5 peptide: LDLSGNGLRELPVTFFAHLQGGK

T6: LRRC25(126-145) biotin peptide (human, not fully specified; N-terminal acetyl; C-terminal GGK-Biotin; native Cys changed to Ser)
T6 peptide: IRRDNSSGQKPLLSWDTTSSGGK

T7: LRRC25(51-69) biotin peptide (human, not fully specified; N-terminal acetyl; C-terminal GGK-Biotin)
T7 peptide: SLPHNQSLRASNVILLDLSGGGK

T8: LRRC25(21-40) biotin peptide (human, not fully specified; N-terminal NH2; C-terminal GGK-Biotin; native Cys changed to Ser)
T8 peptide: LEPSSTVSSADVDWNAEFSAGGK

T9: LRRC25(81-100) biotin peptide (human, not fully specified; N-terminal acetyl; C-terminal GGK-Biotin)
T9 peptide: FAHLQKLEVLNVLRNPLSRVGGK

T10: LRRC25(141-159) biotin peptide (human, not fully specified; N-terminal acetyl; C-terminal GGK-Biotin; native Cys changed to Ser)
T10 peptide: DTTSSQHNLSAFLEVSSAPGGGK


Legend:
[1] = molecular target: T1, LRRC25(96-115) biotin peptide; experiment: ELISA, 20 nM antibody, biotinylated antigen on streptavidin plate
Experimental: (§1) To establish if functional chimera anti-LRRC25 antibodies recognize particular regions of LRRC25, ELISA experiments were performed using 10 plate-immobilized 16- to 20-mer overlapping LRRC25(ECD) biotin peptides (Table 7). Biotinylated human LRRC25-His served as a positive control. A typical ELISA was performed by coating overnight at 4° C., 3 ug/mL/25 ul per well of streptavidin (Jackson Immunoresearch, Cat. #016-030-084) in PBS in half-area high binding microtiter wells (Corning Cat. #3690). […] Biotin peptides or biotinylated human LRRC25-His protein were added in duplicate (2 ug/mL/25 ul per well) in assay buffer (blocking buffer containing 0.05% tween 20) and the plate incubated for 45 min at 37° C. The plate was washed as before, 20 nM anti-LRRC25 antibodies in assay buffer added in duplicate into appropriate wells, and the plate incubated as before. The plate was washed and HRP-conjugated secondary antibody in assay buffer added [25 ul per well; goat anti-human IgG (Jackson Immunoresearch, Cat. #715-035-150)], and incubated as before. Antibody bound to plate-immobilized peptide(s) or protein was determined at A450 nm using HRP substrate (3,3′,5,5′-tetramethylbenzidine (TMB); eBioscience; Cat. #00-4201-56); 100 μl/well).

[2] = molecular target: T11, biotinylated human LRRC25-His protein (human, UniProt Q8N386 21-165, biotinylated (sites not given)); experiment: as above
T11 construct: also called Biotin LRRC25-His; biotinylated LRRC25 protein
T11 sequence (Q8N386 other isoform, or with tags, fused parts or gaps): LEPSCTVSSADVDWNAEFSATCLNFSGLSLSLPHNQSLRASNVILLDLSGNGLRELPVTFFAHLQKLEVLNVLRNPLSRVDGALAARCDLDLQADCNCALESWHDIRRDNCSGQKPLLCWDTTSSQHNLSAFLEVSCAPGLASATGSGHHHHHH
Experimental: as §1

[3] = molecular target: T12, His-tagged cynomolgus monkey LRRC25 extracellular domain protein, cyno LRRC25-His (cynomolgus monkey); experiment: ELISA, plate-immobilized cyno LRRC25-His
T12 construct: The entry holds the extracellular domain, a GSG linker and the His tag
T12 sequence (chain, as listed by the source limits assumed): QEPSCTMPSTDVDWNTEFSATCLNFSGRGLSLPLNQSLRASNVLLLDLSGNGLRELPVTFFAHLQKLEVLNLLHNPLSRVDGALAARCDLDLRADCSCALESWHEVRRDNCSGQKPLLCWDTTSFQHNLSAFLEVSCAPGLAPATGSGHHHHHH
Experimental: (§2) A typical ELISA was performed by coating overnight in PBS, pH 7.4, at 4° C. in high binding microtiter wells with 1 ug/mL/100 ul per well of human LRRC25-His or cyno LRRC25-His. An anti-human LRRC25 antibody (2A3, LS Bio, LS-C174039-100) and anti-HIS-HRP (Miltenyi Biotec; 130-092-783) served as coating controls for the human and cyno LRRC25 proteins, respectively. […] Anti-LRRC25 antibodies were added (100 ul per well) at 500 nM and serially diluted 3-fold in assay buffer (1% skimmed milk in PBS, pH 7.4). The plate was incubated with gentle agitation for 1 h at room temperature. The plate was washed 3× and HRP-conjugated secondary antibody in assay buffer added [100 ul per well; goat anti-human IgG (Jackson Immunoresearch, cat #715-035-150)], and the plate was incubated as before. Antibody bound to plate-immobilized LRRC25(ECD)-HIS was determined at A450 nm using HRP substrate (3,3′,5,5′-tetramethylbenzidine (TMB); eBioscience; 00-4201-56); 100 μl/well).

[4] = molecular target: T2, LRRC25(111-130) biotin peptide; experiment: peptide ELISA
Experimental: as §1

[5] = molecular target: T3, LRRC25(150-165) biotin peptide; experiment: peptide ELISA
Experimental: as §1

[6] = molecular target: T4, LRRC25(36-55) biotin peptide; experiment: peptide ELISA
Experimental: as §1

[7] = molecular target: T5, LRRC25(66-85) biotin peptide; experiment: peptide ELISA
Experimental: as §1

[8] = molecular target: T6, LRRC25(126-145) biotin peptide; experiment: peptide ELISA
Experimental: as §1

[9] = molecular target: T1, LRRC25(96-115) biotin peptide; experiment: peptide ELISA
Experimental: as §1

[10] = molecular target: T7, LRRC25(51-69) biotin peptide; experiment: peptide ELISA
Experimental: as §1

[11] = molecular target: T8, LRRC25(21-40) biotin peptide; experiment: peptide ELISA
Experimental: as §1

[12] = molecular target: T9, LRRC25(81-100) biotin peptide; experiment: peptide ELISA
Experimental: as §1

[13] = molecular target: T10, LRRC25(141-159) biotin peptide; experiment: peptide ELISA
Experimental: as §1

[14] = molecular target: T13, His-tagged human LRRC25 extracellular domain protein, human LRRC25-His (human, UniProt Q8N386 21-165); experiment: ELISA, plate-immobilized antigen
T13 construct: The entry holds the extracellular domain, a GSG linker and the His tag; also called LRRC25(ECD)-HIS
T13 sequence (Q8N386 other isoform, or with tags, fused parts or gaps): as the sequence (Q8N386 other isoform, or with tags, fused parts or gaps) above
Experimental: To establish the relative binding strengths of anti-LRRC25 antibodies against human LRRC25, and their cross-reactivity with cynomolgus monkey LRRC25, antibody binding curve analyses were performed and EC50 values against plate-immobilized recombinant human and cyno LRRC25 proteins were determined.
as §2

absorbance (A450) [1] [A450]	absorbance (A450) [2] [A450]	binding result [3]	binding result [4]	binding result [5]	binding result [6]	binding result [7]	binding result [8]	binding result [9]	binding result [10]	binding result [11]	binding result [12]	binding result [13]	EC50 [14] [nM]	Binder
0.11	0.251	no binding (tested: 500 nM)	no binding (tested: 20 nM)	no binding (tested: 20 nM)	no binding (tested: 20 nM)	no binding (tested: 20 nM)	no binding (tested: 20 nM)	no binding (tested: 20 nM)	no binding (tested: 20 nM)	no binding (tested: 20 nM)	no binding (tested: 20 nM)	no binding (tested: 20 nM)	~100	anti-LRRC25 chimeric antibody 4A03 (antibody, human IgG4, V domains shown) VH: DVNLEVSGGGLVKPGGSLKLSCAASGFTFSRYAMSWVRQTPEKRLEWVASISRGGSTYYPDSVKGRFTISRDIARDILYLQMSSLRSEDTAMYYCARGNYGSSLFAYWGQGTLVTVSA VL: DIVMTQAAFSNPVTLGTSASISCRSSKSLLHSNGITYLYWYLQKPGQSPQLLIYQMSNLASGVPDRFSSSGSGTDFTLRISRVEAEDVGVYYCAQNLELPFTFGSGTKLEIKR
0.079	0.354	no binding (tested: 500 nM)	no binding (tested: 20 nM)	no binding (tested: 20 nM)	no binding (tested: 20 nM)	no binding (tested: 20 nM)	no binding (tested: 20 nM)	no binding (tested: 20 nM)	no binding (tested: 20 nM)	no binding (tested: 20 nM)	no binding (tested: 20 nM)	no binding (tested: 20 nM)	30.3	anti-LRRC25 chimeric antibody 3C01 (antibody, human IgG4, V domains shown, also called ATCC PTA-126026) VH: EEKLEESGGGLVKPGGSLKLSCAVSGFTLSSYAMSWVRQTPEKRLEWVASISRGGNTYYPDSVKGRFTISRDNGRNILNLQMSSLRSEDTAIYYCTRGGGSTMITSLFAYWGQGTLVTVSA VL: DIVMTQDAPSVPVTPGESVSISCRSSKSLLHSNGNTYLYWFLQRPGQSPQLLIYRMSNLASGVPDRFSGSGSGTAFTLRISRVEAEDVGVYYCMQHLEYPFTFGSGTKLEIKR

Further lines, the binder ahead of its results:

Binder	absorbance (A450) [1] [A450]	absorbance (A450) [2] [A450]	binding result [3]	binding result [4]	binding result [5]	binding result [6]	binding result [7]	binding result [8]	binding result [9]	binding result [10]	binding result [11]	binding result [12]	binding result [13]	EC50 [14] [nM]
anti-LRRC25 chimeric antibody 1G08 (antibody, human IgG4, V domains shown) VH: DVQLVESGGGLVKPGGSLKLSCAASGFTFSNYAMSWVRQTPEKRLEWVASISRGGNTYYPDSVKGRFTISRDNARNILYLQMSSLRSEDTAIYYCTRGNYGSSPFAYWGQGTLVTVSA VL: DIVLTQSPASLAVSLGQRATISCRASESVDSYGNSFMHWYQQKPGQPPKLLIYLASNLESGVPARFSGSGSRTDFTLTIDPVEADDAATYYCQQNNEDPWTFGGGTKLEIKR	0.099	0.324	no binding (tested: 500 nM)	no binding (tested: 20 nM)	no binding (tested: 20 nM)	no binding (tested: 20 nM)	no binding (tested: 20 nM)	no binding (tested: 20 nM)	no binding (tested: 20 nM)	no binding (tested: 20 nM)	no binding (tested: 20 nM)	no binding (tested: 20 nM)	no binding (tested: 20 nM)	3.2
anti-LRRC25 chimeric antibody 3E01 (antibody, human IgG4, V domains shown) VH: EEKLEESGGGLVKPGGSLKLSCAVSGFTLSSYAMSWVRQTPEKRLEWVASISRGGNTYYPDSVKGRFTISRDNGRNILNLQMSSLRSEDTAIYYCTRGGGSTMITSLFAYWGQGTLVTVSA VL: DIVMTQAAFSNPVTLGTSASIFCRSSKSLLHSNGITYLYWYLQKPGQSPQLLIYQMSNLASGVPDRFSSSGSGTDFTLRISRVEAEDVGVYYCAQNLELPYTFGGGTKLEIKR	0.11	0.341	no binding (tested: 500 nM)	no binding (tested: 20 nM)	no binding (tested: 20 nM)	no binding (tested: 20 nM)	no binding (tested: 20 nM)	no binding (tested: 20 nM)	no binding (tested: 20 nM)	no binding (tested: 20 nM)	no binding (tested: 20 nM)	no binding (tested: 20 nM)	no binding (tested: 20 nM)	45.1
anti-LRRC25 chimeric antibody 3F04 (antibody, human IgG4) heavy: DVQLVESGGGLVKPGGSLKLSCAVSGFTLSSYAMSWVRQTPEKRLEWVASISRGGSTYYPDSVKGRFTISRDNGRNILNLQMSSLRSEDTAIYYCARGGGSTMITSLFAYWGQGTLVTVSAASTKGPSVFPLAPCSRSTSESTAALGCLVKDYFPEPVTVSWNSGALTSGVHTFPAVLQSSGLYSLSSVVTVPSSSLGTKTYTCNVDHKPSNTKVDKRVESKYGPPCPPCPAPEFLGGPSVFLFPPKPKDTLMISRTPEVTCVVVDVSQEDPEVQFNWYVDGVEVHNAKTKPREEQFNSTYRWSVLTVLHQDWLNGKEYKCKVSNKGLPSSIEKTISKAKGQPREPQVYTLPPSQEEMTKNQVSLTCLVKGFYPSDIAVEWESNGQPENNYKTTPPVLDSDGSFFLYSRLTVDKSRWQEGNVFSCSVMHEALHNHYTQKSLSLSLGK light: DIVMTQDAFSNPVTLGTSASISCRSSKSLLHSNGITYLYWYLQKPGQSPQLLIYQMSNLASGVPDRFSSSGSGTDFTLRISRVEAEDVGVYYCAQNLELPFTFGSGTKLEIKRTVAAPSVFIFPPSDEQLKSGTASVVCLLNNFYPREAKVQWKVDNALQSGNSQESVTEQDSKDSTYSLSSTLTLSKADYEKHKVYACEVTHQGLSSPVTKSFNRGEC	0.156	0.324	no binding (tested: 500 nM)	no binding (tested: 20 nM)	no binding (tested: 20 nM)	no binding (tested: 20 nM)	no binding (tested: 20 nM)	no binding (tested: 20 nM)	no binding (tested: 20 nM)	no binding (tested: 20 nM)	no binding (tested: 20 nM)	no binding (tested: 20 nM)	no binding (tested: 20 nM)	63
